Experimental data as given in patent US11015206B2, “Compositions and methods comprising sequences having hydroxyphenylpyruvate dioxygenase (HPPD) activity” (PIONEER HI-BRED INTERNATIONAL, INC., priority 2014, dated 2021).

Columns and labels:
Type in all cases: biochemical, Z. mays
[1] = tested on: 4-hydroxyphenylpyruvate dioxygenase (HPPD); test: OFF rate ratio: release of inhibitor from pre-formed enzyme-inhibitor complex; conditions: Table 5; tembotrione
Procedure, shortened: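 Inhibitor release from pre-formed complex (enzyme 7.2 μM, inhibitor 8 μM, 1 h RT) tracked as accelerating HPPD activity at 320 nm over 12 min, coupled via 50 nM HGD with 100 μM HPP at pH 7. OFF rate ratio: steady-state velocity relative to uninhibited initial velocity.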

[2] = tested on: 4-hydroxyphenylpyruvate dioxygenase (HPPD); test: Insensitivity parameter (ON × OFF) and trait fitness (ON × OFF × kcat/KM or × kcat); conditions: for ON × OFF × kcat, Value / ON × OFF × kcat, Fold vs wt / ON × OFF, fold vs wt / ON × OFF (parameters with tembotrione): Table 5, tembotrione; for ON × OFF × kcat, Fold vs wt / ON × OFF, fold vs wt: fold vs maize wild type HPPD; for ON × OFF (parameters with tembotrione): insensitivity parameter
Procedure, shortened: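 Trait fitness combines catalysis and insensitivity as kcat/KM × ON rate ratio × OFF rate ratio. The insensitivity parameter is the product of ON and OFF rate ratios, used in place of KD because the ON rate ratio is inverse.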

[3] = tested on: 4-hydroxyphenylpyruvate dioxygenase (HPPD); test: ON rate ratio: HPPD reaction rate with vs without inhibitor in the 70 to 90 second interval; conditions: Table 5; tembotrione
Procedure, shortened: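 Indicator of inhibitor on-rate: reaction velocity in the 70 to 90 second window with 4 μM inhibitor divided by that without. Reactions contained 100 μM HPP and 60 or 120 nM HPPD; slower binding gives a larger ratio.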

[4] = tested on: 4-hydroxyphenylpyruvate dioxygenase (HPPD); test: HPPD activity coupled assay with HGD; substrate saturation kinetic parameters (kcat, KM); conditions: Table 6; for kcat: single substitutions in SEQ ID NO:2
Method: Wild type and shuffled variant genes were cloned into pVER7062, a modified version of pET24a(+)(Novagen), which places six histidine residues at the N-terminus of the expressed protein. Vectors were electroporated into E. coli host strain BL21(DE3). Cells were grown at 30 C in rich medium such as 2×YT containing the selection antibiotic, kanamycin. At a density of about 0.6 OD600, IPTG was added to 0.2 mM, the temperature was reduced to 16 C and growth continued for another 24 hrs. Cells were harvested by centrifugation and stored at −80 C. Cell pellets were lysed in BPER (Pierce) protein extraction reagent containing 0.2 mg/ml lysozyme, 1 mM dithiothreitol, protease inhibitor cocktail (Sigma, bacterial cocktail) and endonuclease. Insoluble cellular debris was removed by centrifugation. HPPD protein was purified from the soluble protein solution by affinity chromatography on the nickel form of nitrilotriacetic acid (Ni-NTA) resin (Qiagen). Protein concentrations were determined by the Bradford method, as supplied by Bio-Rad.
HPPD catalyzes the conversion of 4-hydroxyphenylpyruvate (HPP) to homogentisate (FIG. 17). […] However, the product of the ensuing reaction in tyrosine metabolism, maleylacetoacetate, absorbs strongly at 320 nm. Furthermore, the enzyme catalyzing that reaction is also a dioxygenase having similar mechanism and buffer requirements as HPPD, making homogentisate dioxygenase (HGD) an ideal partner in a coupled assay, as shown.
The HDG gene from Pseudomonas aeruginosa (Amaya (2004) Arch Biochem Biophys 421, 135-142) was cloned into pVER7062 and electroporated into E. coli strain BL21(DE3). The enzyme was produced by methods similar to those described for HPPD. The purified enzyme has a KM for homogentisate of 23 μM and a kcat of 100/sec, properties highly suited for instantly converting the homogentisate produced by HPPD to maleylacetoacetate.
HPPD activity was measured by placing an aliquot (e.g., 6 μl) of the substrate HPP at 50-fold the desired final concentration into the wells of a low UV-absorbing assay plate. Reactions were started by adding a mixture (e.g., 294 μl) containing 25 mM Hepes, pH 7, 2 mM ascorbate, 10 μM FeSO4, 1 to 100 μM HPP, 50 nM HGD and 5 to 240 nM HPPD. Absorbance at 320 nm was monitored continuously in a plate-reading spectrophotometer (Spectramax, Molecular Devices).
The catalytic performance of wild-type HPPD and variants generated by shuffling was assessed by determining the substrate saturation kinetic parameters. The Michaelis-Menten kinetics protocol of the Spectramax software was customized for HPP concentrations ranging from 3.33 μM to 100 μM. Reaction rates were measured as described above for each concentration of HPP. The software returns values of KM and Vmax using the Lineweaver-Burke transformation of the Michaelis-Menten equation.

[5] = tested on: 4-hydroxyphenylpyruvate dioxygenase (HPPD); test: Estimate of kcat from initial rate at saturating hydroxyphenylpyruvate without inhibitor (ON rate ratio assay); conditions: Table 5; single substitutions in Round 7 variant 9070 (SEQ ID NO:2); estimate from initial rate at saturating hydroxyphenylpyruvate without inhibitor
Procedure, shortened: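 kcat was estimated from the initial reaction rate with known enzyme level (60 or 120 nM HPPD). Hydroxyphenylpyruvate was at a saturating 100 μM, with no inhibitor present.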

[6] = DKN (diketonitrile form of isoxaflutole)
[7] = DKN (isoxaflutole diketonitrile)

Molecule | OFF ratio (parameters with tembotrione) [1] | Insensitivity parameter, ON × OFF [2, 6] | ON × OFF × kcat/km fold vs Round 7, variant 9070 [2, 7] | Insensitivity parameter, ON × OFF ([2]; Mesotrione, Table 6) | ON × OFF × kcat/km fold vs Round 7, variant 9070 ([2]; Sulco (sulcotrione)) | Insensitivity parameter, ON × OFF ([2]; Sulcotrione) | ON × OFF × kcat, Value [2] | ON × OFF × kcat, Fold vs wt [2] | ON × OFF, fold vs wt [2] | ON × OFF (parameters with tembotrione) [2] | Insensitivity parameter, ON × OFF ([2]; Tembotrione) | ON × OFF × kcat/km fold vs Round 7, variant 9070 ([2]; Topra (topramezone)) | Insensitivity parameter, ON × OFF ([2]; Topramezon) | ON × OFF × kcat/km fold vs Round 7, variant 9070 ([2]; meso (mesotrione)) | ON × OFF × kcat/km fold vs Round 7, variant 9070 ([2]; tembo (tembotrione)) | ON ratio (parameters with tembotrione) [3] | Km [4] [µM] | kcat [4] [s⁻¹] | kcat [5] [s⁻¹]
432K: single substitution A432K in SEQ ID NO:2 (protein, Zea mays variant form created by artificial means.) MGPTPTATAAGAAVAAASAAEQAAFRLVGHRNFVRFNPRSDRFQTLAFHHVELWCADAASAAGRFSFALGVPLAARSDLSTGNSAHASLLLRSGSLSLLFTAPYAHGADAATAALPSFSAAAARRFAADHGLAVRAVALRVADAEDAFRASVAAGARPAFGPVDLGRGFRLAEVELYGDVVLRYVSYPDGAAGEPFLPGFEGVASPGAADYGLSRFDHIVGNVPELAPAAAYMAGFTGFHEFAEFTTEDVGTTESGLNSMALANNSENVLLPLNEPVHGTKRRSQIQTFLDHHGGPGVQHIALASDDVLRTLREMRARSAMGGFEFLPPPLSDYYDGVRRCAGDVLTEAQINECQELGVMVDRDDQGVLLQIFTKPVGDRPTFFLEIIQRIGCMEKDEKGQEYQKGGCGGFGKGNFGQLFKSIEDYEKSLEKKQAAAAATAQGS | 0.17 | 0.26 | 1.6 | 0.52 | 1.5 | 0.59 | 4.13 | 3.86 | 25.7 | 0.13 | 0.21 | 1.5 | 0.29 | 1.6 | 1.4 | 0.76 | 2.08 | 1.12 | 0.525
214N: single substitution S214N in SEQ ID NO:2 (protein, Zea mays variant form created by artificial means.) MGPTPTATAAGAAVAAASAAEQAAFRLVGHRNFVRFNPRSDRFQTLAFHHVELWCADAASAAGRFSFALGVPLAARSDLSTGNSAHASLLLRSGSLSLLFTAPYAHGADAATAALPSFSAAAARRFAADHGLAVRAVALRVADAEDAFRASVAAGARPAFGPVDLGRGFRLAEVELYGDVVLRYVSYPDGAAGEPFLPGFEGVASPGAADYGLNRFDHIVGNVPELAPAAAYMAGFTGFHEFAEFTTEDVGTTESGLNSMALANNSENVLLPLNEPVHGTKRRSQIQTFLDHHGGPGVQHIALASDDVLRTLREMRARSAMGGFEFLPPPLSDYYDGVRRCAGDVLTEAQINECQELGVMVDRDDQGVLLQIFTKPVGDRPTFFLEIIQRIGCMEKDEKGQEYQKGGCGGFGKGNFGQLFKSIEDYEKSLEAKQAAAAATAQGS | 0.19 | 0.33 | 1.4 | 0.48 | 1.1 | 0.59 | 5.04 | 4.71 | 27.9 | 0.14 | 0.25 | 1.2 | 0.32 | 1.1 | 1.3 | 0.76 | 3.62 | 1.41 | 0.59
158K: single substitution P158K in SEQ ID NO:2 (protein, Zea mays variant form created by artificial means.) MGPTPTATAAGAAVAAASAAEQAAFRLVGHRNFVRFNPRSDRFQTLAFHHVELWCADAASAAGRFSFALGVPLAARSDLSTGNSAHASLLLRSGSLSLLFTAPYAHGADAATAALPSFSAAAARRFAADHGLAVRAVALRVADAEDAFRASVAAGARKAFGPVDLGRGFRLAEVELYGDVVLRYVSYPDGAAGEPFLPGFEGVASPGAADYGLSRFDHIVGNVPELAPAAAYMAGFTGFHEFAEFTTEDVGTTESGLNSMALANNSENVLLPLNEPVHGTKRRSQIQTFLDHHGGPGVQHIALASDDVLRTLREMRARSAMGGFEFLPPPLSDYYDGVRRCAGDVLTEAQINECQELGVMVDRDDQGVLLQIFTKPVGDRPTFFLEIIQRIGCMEKDEKGQEYQKGGCGGFGKGNFGQLFKSIEDYEKSLEAKQAAAAATAQGS | 0.27 | 0.38 | 1.0 | 0.54 | 0.9 | 0.63 | 10.44 | 9.76 | 40.6 | 0.21 | 0.29 | 1.1 | 0.37 | 1.0 | 1.3 | 0.77 | 2.49 | 0.785 | 0.84
385I: single substitution L385I in SEQ ID NO:2 (protein, Zea mays variant form created by artificial means.) MGPTPTATAAGAAVAAASAAEQAAFRLVGHRNFVRFNPRSDRFQTLAFHHVELWCADAASAAGRFSFALGVPLAARSDLSTGNSAHASLLLRSGSLSLLFTAPYAHGADAATAALPSFSAAAARRFAADHGLAVRAVALRVADAEDAFRASVAAGARPAFGPVDLGRGFRLAEVELYGDVVLRYVSYPDGAAGEPFLPGFEGVASPGAADYGLSRFDHIVGNVPELAPAAAYMAGFTGFHEFAEFTTEDVGTTESGLNSMALANNSENVLLPLNEPVHGTKRRSQIQTFLDHHGGPGVQHIALASDDVLRTLREMRARSAMGGFEFLPPPLSDYYDGVRRCAGDVLTEAQINECQELGVMVDRDDQGVLLQIFTKPVGDRPTFFIEIIQRIGCMEKDEKGQEYQKGGCGGFGKGNFGQLFKSIEDYEKSLEAKQAAAAATAQGS | 0.27 | 0.41 | 1.2 | 0.56 | 1.1 | 0.70 | 5.55 | 5.18 | 39.5 | 0.20 | 0.28 | 1.2 | 0.38 | 1.1 | 1.3 | 0.75 | 2.29 | 0.768 | 0.458
